Results: US20040180051A1 (published 2004)

B1: humanized H chain version “a” combined with a chimeric L chain (antibody, V domains shown)
VH: QVQLLESGAVLARPGTSVKISCKASGFNIKDYYMHWVKQRPGQGLEWIGGNDPANGHSMYDPKFQGRAKLTAATSASIAYLEFSSLTNEDSAVYYCARDSGYAMDYWGQGTLVTVSS
VL: DIKMTQSPSSMYASLGERVTITCKASQDIKSFLSWYQQKPWKSPKTLIYYATSLADGVPSRFSGSGSGQDYSLTINNLESDDTATYYCLQHGESPYTFGGGTKLEIK
notes: expressed in COS-7
B2: humanized L chain version “b” combined with a chimeric H chain (antibody, V domains shown)
VH: EVQLQQSGTNLVRPGALVKLSCKGSGFNIKDYYMHWVKQRPEQGLEWIGGNDPANGHSMYDPKFQGKASITADTSSNTAYLQLSSLTSEDTAVYFCARDSGYAMDYWGQGTSVTVSS
VL: DIQMTQSPSSLSASVGDRVTITCKASQDIKSFLSWYQQKPGKAPKLLIYYATSLADGVPSRFSGSGSGTDYTLTISSLQPEDFATYYCLQHGESPYTFGGGTKVEIK
notes: expressed in COS-7; also called ch-b
B3: humanized L chain version “a” combined with a chimeric H chain (antibody, V domains shown)
VH: EVQLQQSGTNLVRPGALVKLSCKGSGFNIKDYYMHWVKQRPEQGLEWIGGNDPANGHSMYDPKFQGKASITADTSSNTAYLQLSSLTSEDTAVYFCARDSGYAMDYWGQGTSVTVSS
VL: DIQMTQSPSSLSASVGDRVTITCKASQDIKSFLSWYQQKPGKAPKLLIYYATSLADGVPSRFSGSGSGTDFTLTISSLQPEDFATYYCLQHGESPYTFGGGTKVEIK
notes: expressed in COS-7
B4: humanized L chain version “b1” combined with a chimeric H chain (antibody, V domains shown)
VH: EVQLQQSGTNLVRPGALVKLSCKGSGFNIKDYYMHWVKQRPEQGLEWIGGNDPANGHSMYDPKFQGKASITADTSSNTAYLQLSSLTSEDTAVYFCARDSGYAMDYWGQGTSVTVSS
VL: DIQMTQSPSSLSASVGDRVTITCKASQDIKSFLSWFQQKPGKSPKTLIYYATSLADGVPSRFSGSGSGTDYTLTISSLQPEDFATYYCLQHGESPYTFGGGTKVEIK
notes: expressed in COS-7; also called ch-b1
B5: humanized L chain version “b2” combined with a chimeric H chain (antibody, V domains shown)
VH: EVQLQQSGTNLVRPGALVKLSCKGSGFNIKDYYMHWVKQRPEQGLEWIGGNDPANGHSMYDPKFQGKASITADTSSNTAYLQLSSLTSEDTAVYFCARDSGYAMDYWGQGTSVTVSS
VL: DIQMTQSPSSLSASVGDRVTITCKASQDIKSFLSWYQQKPEKAPKSLIYYATSLADGVPSRFSGSGSGTDYTLTISSLQPEDFATYYCLQHGESPYTFGGGTKVEIK
notes: expressed in COS-7; also called ch-b2
B6: humanized L chain version “c” combined with a chimeric H chain (antibody, V domains shown)
VH: EVQLQQSGTNLVRPGALVKLSCKGSGFNIKDYYMHWVKQRPEQGLEWIGGNDPANGHSMYDPKFQGKASITADTSSNTAYLQLSSLTSEDTAVYFCARDSGYAMDYWGQGTSVTVSS
VL: DIQMTQSPSSLSASVGDRVTITCKASQDIKSFLSWYQQKPGKAPKLLIYYATSLADGVPSRFSGSGSGTDYTLTISSLQPEDIATYYCLQHGESPYTFGGGTKVEIK
notes: expressed in COS-7
B7: H chain humanized version b/L chain humanized version b antibody (antibody, V domains shown)
VH: QVQLLESGAVLARPGTSVKISCKASGFNIKDYYMHWVKQRPGQGLEWIGGNDPANGHSMYDPKFQGRVTITADTSTNTAYMELSSLRSEDTAIYYCARDSGYAMDYWGQGTLVTVSS
VL: DIQMTQSPSSLSASVGDRVTITCKASQDIKSFLSWYQQKPGKAPKLLIYYATSLADGVPSRFSGSGSGTDYTLTISSLQPEDFATYYCLQHGESPYTFGGGTKVEIK
notes: also called b-b
B8: H chain humanized version i/L chain humanized version b2 antibody (antibody, V domains shown)
VH: QVQLLESGAVLARPGTSVKISCKASGFNIKDYYMHWVKQRPGQGLEWIGGNDPANGHSMYDPKFQGRVTITADTSTSTVFMELSSLRSEDTAVYYCARDSGYAMDYWGQGTLVTVSS
VL: DIQMTQSPSSLSASVGDRVTITCKASQDIKSFLSWYQQKPEKAPKSLIYYATSLADGVPSRFSGSGSGTDYTLTISSLQPEDFATYYCLQHGESPYTFGGGTKVEIK
notes: also called i-b2
B9: H chain humanized version i/L chain humanized version b antibody (antibody, V domains shown)
VH: QVQLLESGAVLARPGTSVKISCKASGFNIKDYYMHWVKQRPGQGLEWIGGNDPANGHSMYDPKFQGRVTITADTSTSTVFMELSSLRSEDTAVYYCARDSGYAMDYWGQGTLVTVSS
VL: DIQMTQSPSSLSASVGDRVTITCKASQDIKSFLSWYQQKPGKAPKLLIYYATSLADGVPSRFSGSGSGTDYTLTISSLQPEDFATYYCLQHGESPYTFGGGTKVEIK
B10: humanized H chain version “b3” combined with the humanized L chain version “b” (antibody, V domains shown)
VH: QVQLLESGAVLARPGTSVKISCKASGFNIKDYYMHWVRQAPGQGLEWIGGNDPANGHSMYDPKFQGRVTITADTSTNTAYMELSSLRSEDTAIYYCARDSGYAMDYWGQGTLVTVSS
VL: DIQMTQSPSSLSASVGDRVTITCKASQDIKSFLSWYQQKPGKAPKLLIYYATSLADGVPSRFSGSGSGTDYTLTISSLQPEDFATYYCLQHGESPYTFGGGTKVEIK
notes: expressed in COS-7; also called b3-b
B11: humanized H chain version “b” combined with the humanized L chain version “a” (antibody, V domains shown)
VH: QVQLLESGAVLARPGTSVKISCKASGFNIKDYYMHWVKQRPGQGLEWIGGNDPANGHSMYDPKFQGRVTITADTSTNTAYMELSSLRSEDTAIYYCARDSGYAMDYWGQGTLVTVSS
VL: DIQMTQSPSSLSASVGDRVTITCKASQDIKSFLSWYQQKPGKAPKLLIYYATSLADGVPSRFSGSGSGTDFTLTISSLQPEDFATYYCLQHGESPYTFGGGTKVEIK
notes: expressed in COS-7; also called b-a
B12: humanized H chain version “b” combined with the humanized L chain version “b2” (antibody, V domains shown)
VH: QVQLLESGAVLARPGTSVKISCKASGFNIKDYYMHWVKQRPGQGLEWIGGNDPANGHSMYDPKFQGRVTITADTSTNTAYMELSSLRSEDTAIYYCARDSGYAMDYWGQGTLVTVSS
VL: DIQMTQSPSSLSASVGDRVTITCKASQDIKSFLSWYQQKPEKAPKSLIYYATSLADGVPSRFSGSGSGTDYTLTISSLQPEDFATYYCLQHGESPYTFGGGTKVEIK
notes: expressed in COS-7; also called b-b2
B13: humanized H chain version “b” combined with the humanized L chain version “c” (antibody, V domains shown)
VH: QVQLLESGAVLARPGTSVKISCKASGFNIKDYYMHWVKQRPGQGLEWIGGNDPANGHSMYDPKFQGRVTITADTSTNTAYMELSSLRSEDTAIYYCARDSGYAMDYWGQGTLVTVSS
VL: DIQMTQSPSSLSASVGDRVTITCKASQDIKSFLSWYQQKPGKAPKLLIYYATSLADGVPSRFSGSGSGTDYTLTISSLQPEDIATYYCLQHGESPYTFGGGTKVEIK
notes: The construction of its expression plasmid is not described
B14: humanized H chain version “d3” combined with the humanized L chain version “b” (antibody, V domains shown)
VH: QVQLLESGAVLARPGTSVKISCKASGFNIKDYYMHWVRQAPGQGLEWIGGNDPANGHSMYDPKFQGRVTITADESTSTAYMELSSLRSEDSAVYFCARDSGYAMDYWGQGTLVTVSS
VL: DIQMTQSPSSLSASVGDRVTITCKASQDIKSFLSWYQQKPGKAPKLLIYYATSLADGVPSRFSGSGSGTDYTLTISSLQPEDFATYYCLQHGESPYTFGGGTKVEIK
notes: expressed in COS-7; also called d3-b
B15: humanized H chain version “d” combined with the humanized L chain version “b” (antibody, V domains shown)
VH: QVQLLESGAVLARPGTSVKISCKASGFNIKDYYMHWVKQRPGQGLEWIGGNDPANGHSMYDPKFQGRVTITADESTSTAYMELSSLRSEDSAVYFCARDSGYAMDYWGQGTLVTVSS
VL: DIQMTQSPSSLSASVGDRVTITCKASQDIKSFLSWYQQKPGKAPKLLIYYATSLADGVPSRFSGSGSGTDYTLTISSLQPEDFATYYCLQHGESPYTFGGGTKVEIK
notes: expressed in COS-7; also called d-b
B16: humanized H chain version “g” combined with the humanized L chain version “b” (antibody, V domains shown)
VH: QVQLLESGAVLARPGTSVKISCKASGFNIKDYYMHWVKQRPGQGLEWIGGNDPANGHSMYDPKFQGKATLTADESSSTAYMQLSSLRSEDSAVYSCARDSGYAMDYWGQGTLVTVSS
VL: DIQMTQSPSSLSASVGDRVTITCKASQDIKSFLSWYQQKPGKAPKLLIYYATSLADGVPSRFSGSGSGTDYTLTISSLQPEDFATYYCLQHGESPYTFGGGTKVEIK
notes: expressed in COS-7; also called g-b
B17: humanized H chain version “i” combined with the humanized L chain version “b1” (antibody, V domains shown)
VH: QVQLLESGAVLARPGTSVKISCKASGFNIKDYYMHWVKQRPGQGLEWIGGNDPANGHSMYDPKFQGRVTITADTSTSTVFMELSSLRSEDTAVYYCARDSGYAMDYWGQGTLVTVSS
VL: DIQMTQSPSSLSASVGDRVTITCKASQDIKSFLSWFQQKPGKSPKTLIYYATSLADGVPSRFSGSGSGTDYTLTISSLQPEDFATYYCLQHGESPYTFGGGTKVEIK
notes: expressed in COS-7; also called i-b1
B18: humanized H chain version “j” combined with the humanized L chain version “b” (antibody, V domains shown)
VH: QVQLLESGAVLARPGTSVKISCKASGFNIKDYYMHWVKQRPGQGLEWIGGNDPANGHSMYDPKFQGRVTFTADTSANTAYMELRSLRSADTAVYYCARDSGYAMDYWGQGTLVTVSS
VL: DIQMTQSPSSLSASVGDRVTITCKASQDIKSFLSWYQQKPGKAPKLLIYYATSLADGVPSRFSGSGSGTDYTLTISSLQPEDFATYYCLQHGESPYTFGGGTKVEIK
notes: expressed in COS-7; also called j-b
B19: humanized H chain version “b” combined with a chimeric L chain (antibody, V domains shown)
VH: QVQLLESGAVLARPGTSVKISCKASGFNIKDYYMHWVKQRPGQGLEWIGGNDPANGHSMYDPKFQGRVTITADTSTNTAYMELSSLRSEDTAIYYCARDSGYAMDYWGQGTLVTVSS
VL: DIKMTQSPSSMYASLGERVTITCKASQDIKSFLSWYQQKPWKSPKTLIYYATSLADGVPSRFSGSGSGQDYSLTINNLESDDTATYYCLQHGESPYTFGGGTKLEIK
notes: expressed in COS-7; also called b-ch
B20: humanized H chain version “d” combined with a chimeric L chain (antibody, V domains shown)
VH: QVQLLESGAVLARPGTSVKISCKASGFNIKDYYMHWVKQRPGQGLEWIGGNDPANGHSMYDPKFQGRVTITADESTSTAYMELSSLRSEDSAVYFCARDSGYAMDYWGQGTLVTVSS
VL: DIKMTQSPSSMYASLGERVTITCKASQDIKSFLSWYQQKPWKSPKTLIYYATSLADGVPSRFSGSGSGQDYSLTINNLESDDTATYYCLQHGESPYTFGGGTKLEIK
notes: expressed in COS-7; also called d-ch
B21: humanized H chain version “e” combined with a chimeric L chain (antibody, V domains shown)
VH: QVQLLESGAVLARPGTSVKISCKASGFNIKDYYMHWVKQRPGQGLEWIGGNDPANGHSMYDPKFQGRVSITADESTKIAYMELNSLRSEDTAVYFCARDSGYAMDYWGQGTLVTVSS
VL: DIKMTQSPSSMYASLGERVTITCKASQDIKSFLSWYQQKPWKSPKTLIYYATSLADGVPSRFSGSGSGQDYSLTINNLESDDTATYYCLQHGESPYTFGGGTKLEIK
notes: expressed in COS-7; also called e-ch
B22: humanized H chain version “i” combined with a chimeric L chain (antibody, V domains shown)
VH: QVQLLESGAVLARPGTSVKISCKASGFNIKDYYMHWVKQRPGQGLEWIGGNDPANGHSMYDPKFQGRVTITADTSTSTVFMELSSLRSEDTAVYYCARDSGYAMDYWGQGTLVTVSS
VL: DIKMTQSPSSMYASLGERVTITCKASQDIKSFLSWYQQKPWKSPKTLIYYATSLADGVPSRFSGSGSGQDYSLTINNLESDDTATYYCLQHGESPYTFGGGTKLEIK
notes: expressed in COS-7; also called i-ch

Each binder was assayed against T1, human tissue factor (human TF) on human bladder carcinoma cells J82 (human, UniProt P13726 33-295) (assay: cell ELISA on fixed J82 cells;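 note: measures antigen binding in a cell ELISA on J82 cells grown one day in 96-well plates and fixed with 4% paraformaldehyde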).
T1 construct: whole, on cells; Target of the cell ELISA; also called the antigen

Binding result, binds:
B1
B2
B3
B4
B5
B6
B7
B8
B9
B10
B11
B12
B13
B14
B15
B16
B17
B18
B19
B20
B21
B22
